{"source": "patent US9340788B2", "about": "(priority 2007, dated 2016)", "target": "T1, human PDGFRα (Homo sapiens, UniProt P16234)", "T1 construct": "HEL cells that endogenously express PDGFRα; endogenous in cells; host or cells: HEL human embryonic lung fibroblasts (ATCC)", "T1 sequence (P16234 24-1089)": "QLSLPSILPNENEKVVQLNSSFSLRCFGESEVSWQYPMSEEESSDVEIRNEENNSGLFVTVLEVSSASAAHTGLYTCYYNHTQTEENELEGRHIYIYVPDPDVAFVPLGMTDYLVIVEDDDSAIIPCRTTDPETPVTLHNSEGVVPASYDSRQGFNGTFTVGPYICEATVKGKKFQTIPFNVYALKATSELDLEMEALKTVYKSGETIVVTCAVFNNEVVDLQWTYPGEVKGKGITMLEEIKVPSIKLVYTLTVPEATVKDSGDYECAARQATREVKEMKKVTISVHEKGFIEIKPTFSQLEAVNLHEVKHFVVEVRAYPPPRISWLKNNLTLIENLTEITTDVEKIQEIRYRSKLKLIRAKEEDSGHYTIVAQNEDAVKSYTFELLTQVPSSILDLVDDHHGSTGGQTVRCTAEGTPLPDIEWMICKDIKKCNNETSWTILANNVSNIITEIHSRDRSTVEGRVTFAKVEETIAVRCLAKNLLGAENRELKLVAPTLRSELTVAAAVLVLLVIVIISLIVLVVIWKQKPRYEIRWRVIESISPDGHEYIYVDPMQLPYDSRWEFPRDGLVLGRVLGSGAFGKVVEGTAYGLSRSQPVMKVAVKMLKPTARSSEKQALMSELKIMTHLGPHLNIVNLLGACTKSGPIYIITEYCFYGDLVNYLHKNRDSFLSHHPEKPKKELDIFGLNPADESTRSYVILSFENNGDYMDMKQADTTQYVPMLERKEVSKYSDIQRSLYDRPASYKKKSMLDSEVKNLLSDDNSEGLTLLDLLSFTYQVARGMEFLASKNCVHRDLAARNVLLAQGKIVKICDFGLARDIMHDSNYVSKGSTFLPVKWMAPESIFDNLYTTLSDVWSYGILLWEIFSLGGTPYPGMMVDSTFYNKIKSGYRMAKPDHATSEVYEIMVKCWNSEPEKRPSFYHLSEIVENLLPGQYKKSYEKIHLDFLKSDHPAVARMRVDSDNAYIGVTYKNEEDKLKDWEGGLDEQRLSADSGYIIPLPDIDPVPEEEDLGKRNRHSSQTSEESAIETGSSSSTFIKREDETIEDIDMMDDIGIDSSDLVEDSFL", "assay": "Human Phospho-PDGFRα ELISA", "assay_type": "cell-based", "conditions": "HEL; Towne, AD169 and TR strains; IMC-3G3 10 μg/ml, 2 h pretreatment; HCMV MOI=1, 10 min", "method": "(A) HEL cells stimulated with HCMV or PDGF-AA were subjected to immunoprecipitation and western blot analyses with indicated antibodies. (B) Phospho-PDGFRα ELISA of cells+/−pretreatment with IMC-3G3 (10 μg/ml, 2 h) followed by HCMV (MOI=1) or PDGF (10 ng/ml) for 10 min. Mean values (n=6)±S.D are shown. (C) Western blot of HEL mock, HCMV, or PDGF-AA stimulated (10 min), +/−IMC-3G3 (2 μg/ml) or Gleevec® (Imatinib) (100 nM). The same membrane was used for p-Akt^Ser 473 and Akt.\n(A) Immunofluorescence detection of gB (upper panels) and PDGFRα (lower panels) in PDGFRα KO cells and PDGFRα overexpressing (OE) cells, following incubation with the gB peptide or mock treatment. Reduced PDGFRα surface staining in gB-treated cells is likely due to receptor internalization. (B) and (C) Immunoprecipitation of PDGFRα and gB from HEL lysates and full-length soluble gB alone or pre-incubated together. Immunoprecipitates were subjected to western blot with the indicated antibodies. (D) ELISA of hPDGFRα phosphorylation after HCMV stimulation (MOI=1), PDGF (10 ng/ml) or recombinant soluble gB (30 μg/ml) in presence or absence of gB neutralizing antibodies 7-17 and Mab 758 (5 μg/ml); bars, ±S.D. (E) Portions of same lysates used in (D) were analyzed by western blot with indicated antibodies.\nHuman Phospho-PDGFRα ELISA. […] Reaction products were read using a microplate reader set at 450 nm. […]", "data": [{"substance": "IMC-3G3: humanized PDGFRα blocking antibody (ImClone Inc.)", "values": [{"measurement": "PDGFRα phosphorylation induced by HCMV strains", "result": "significantly inhibited"}]}]}
